Laboratory results: PMC9482650, “Quantitative fragmentomics allow affinity mapping of interactomes” (Nature Communications, 2022)

T1: SNTG2, Q9NY99
T1 sequence (Q9NY99 68-166, limits assumed, looked up): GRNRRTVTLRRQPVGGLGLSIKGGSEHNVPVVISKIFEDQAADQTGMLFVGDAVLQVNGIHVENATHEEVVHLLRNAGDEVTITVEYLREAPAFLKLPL

T2: PARD3B_1, Q8TEW8
T2 sequence (Q8TEW8 196-299, limits assumed, looked up): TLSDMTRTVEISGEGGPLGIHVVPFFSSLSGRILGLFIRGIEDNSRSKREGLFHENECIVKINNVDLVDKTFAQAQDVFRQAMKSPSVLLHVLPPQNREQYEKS

T3: MPP6, Q9NZW5
T3 sequence (Q9NZW5 125-219, limits assumed, looked up): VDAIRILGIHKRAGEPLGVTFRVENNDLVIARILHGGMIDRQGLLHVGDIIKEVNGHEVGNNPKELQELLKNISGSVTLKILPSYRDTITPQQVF

T4: SNTG1, Q9NSN8
T4 sequence (Q9NSN8 52-150, limits assumed, looked up): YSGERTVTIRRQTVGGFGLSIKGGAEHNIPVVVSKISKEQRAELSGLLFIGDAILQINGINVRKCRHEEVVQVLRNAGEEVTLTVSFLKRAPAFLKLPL

T5: APBA1_2, Q02410
T5 sequence (Q02410 742-832, limits assumed, looked up): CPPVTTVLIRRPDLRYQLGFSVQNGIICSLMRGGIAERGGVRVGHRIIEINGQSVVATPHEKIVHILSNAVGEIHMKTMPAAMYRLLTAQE

T6: NHERF3_3, Q5T2W1
T6 sequence (Q5T2W1 238-333, limits assumed, looked up): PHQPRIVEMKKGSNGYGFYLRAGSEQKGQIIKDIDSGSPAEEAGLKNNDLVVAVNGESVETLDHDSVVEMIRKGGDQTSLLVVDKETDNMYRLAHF

T7: LRRC7, Q96NW7
T7 sequence (Q96NW7 1440-1537, limits assumed, looked up): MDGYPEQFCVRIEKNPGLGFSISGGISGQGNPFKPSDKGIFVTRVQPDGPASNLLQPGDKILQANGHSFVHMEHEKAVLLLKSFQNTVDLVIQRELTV

T8: CARD11, Q9BXL7
T8 sequence (Q9BXL7 662-765, limits assumed, looked up): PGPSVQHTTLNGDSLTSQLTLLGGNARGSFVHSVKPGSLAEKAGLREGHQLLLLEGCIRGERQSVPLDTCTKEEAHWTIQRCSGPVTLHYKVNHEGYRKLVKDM

T9: NHERF3_1, Q5T2W1
T9 sequence (Q5T2W1 4-100, limits assumed, looked up): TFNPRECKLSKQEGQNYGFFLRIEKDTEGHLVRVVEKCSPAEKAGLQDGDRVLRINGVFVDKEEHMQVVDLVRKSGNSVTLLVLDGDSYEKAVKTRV


molecular target: LDB3, O75112; assay: holdup assay; set-up: key: below the threshold = too weak to quantify, mostly under pKd 3.1 to 4; details: plain residues with an end cap or a label only (N-terminal biotin on a linker: ado-ado)
Sequence (O75112 1-94): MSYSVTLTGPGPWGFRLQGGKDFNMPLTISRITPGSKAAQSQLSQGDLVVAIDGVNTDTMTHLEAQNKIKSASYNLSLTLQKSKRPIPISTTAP

pKd	Binder
below the threshold	PEKVSNTTVV [IGSF5, Q9NSI5]
below the threshold	AHGSTRDQSI [KCNB1, Q14721]

molecular target: NHERF4_4, Q86UT5; assay: holdup assay; set-up: key: below the threshold = too weak to quantify, mostly under pKd 3.1 to 4; details: plain residues with an end cap or a label only (N-terminal biotin on a linker: ado-ado)
Sequence (Q86UT5 464-550): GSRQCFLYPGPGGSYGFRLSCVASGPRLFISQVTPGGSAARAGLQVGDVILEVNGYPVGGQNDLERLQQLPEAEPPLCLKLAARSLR

pKd	Binder
below the threshold	PEKVSNTTVV [IGSF5, Q9NSI5]
4.01	AHGSTRDQSI [KCNB1, Q14721]

molecular target: IL16_4, Q14005; assay: holdup assay; set-up: key: below the threshold = too weak to quantify, mostly under pKd 3.1 to 4; details: plain residues with an end cap or a label only (N-terminal biotin on a linker: ado-ado)
Sequence (Q14005 1229-1329): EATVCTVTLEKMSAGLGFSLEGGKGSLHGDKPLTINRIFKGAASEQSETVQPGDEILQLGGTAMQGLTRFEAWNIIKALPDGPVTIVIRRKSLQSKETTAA

pKd	Binder
3.51	PEKVSNTTVV [IGSF5, Q9NSI5]
below the threshold	AHGSTRDQSI [KCNB1, Q14721]

molecular target: T1, SNTG2, Q9NY99; assay: holdup assay; set-up: key: below the threshold = too weak to quantify, mostly under pKd 3.1 to 4; details: plain residues with an end cap or a label only (N-terminal biotin on a linker: ado-ado)

pKd	Binder
3.76	PEKVSNTTVV [IGSF5, Q9NSI5]
below the threshold	AHGSTRDQSI [KCNB1, Q14721]

molecular target: T2, PARD3B_1, Q8TEW8; assay: holdup assay; set-up: key: below the threshold = too weak to quantify, mostly under pKd 3.1 to 4; details: plain residues with an end cap or a label only (N-terminal biotin on a linker: ado-ado)

pKd	Binder
below the threshold	PEKVSNTTVV [IGSF5, Q9NSI5]
below the threshold	AHGSTRDQSI [KCNB1, Q14721]

molecular target: GRASP, Q7Z6J2; assay: holdup assay; set-up: key: below the threshold = too weak to quantify, mostly under pKd 3.1 to 4; details: plain residues with an end cap or a label only (N-terminal biotin on a linker: ado-ado)
Sequence (Q7Z6J2 96-193): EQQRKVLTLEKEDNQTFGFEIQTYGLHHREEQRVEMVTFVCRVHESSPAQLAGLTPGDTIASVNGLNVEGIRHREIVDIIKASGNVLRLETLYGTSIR

pKd	Binder
4.38	PEKVSNTTVV [IGSF5, Q9NSI5]
below the threshold	AHGSTRDQSI [KCNB1, Q14721]

molecular target: DLG1_3, Q12959; assay: holdup assay; set-up: key: below the threshold = too weak to quantify, mostly under pKd 3.1 to 4; details: plain residues with an end cap or a label only (N-terminal biotin on a linker: ado-ado)
Sequence (Q12959 457-571): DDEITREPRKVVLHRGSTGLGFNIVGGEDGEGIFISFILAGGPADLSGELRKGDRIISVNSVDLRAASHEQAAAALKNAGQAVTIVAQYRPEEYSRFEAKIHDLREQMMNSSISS

pKd	Binder
below the threshold	PEKVSNTTVV [IGSF5, Q9NSI5]
3.93	AHGSTRDQSI [KCNB1, Q14721]

molecular target: T3, MPP6, Q9NZW5; assay: holdup assay; set-up: key: below the threshold = too weak to quantify, mostly under pKd 3.1 to 4; details: plain residues with an end cap or a label only (N-terminal biotin on a linker: ado-ado)

pKd	Binder
below the threshold	PEKVSNTTVV [IGSF5, Q9NSI5]
below the threshold	AHGSTRDQSI [KCNB1, Q14721]

molecular target: LNX1_1, Q8TBB1; assay: holdup assay; set-up: key: below the threshold = too weak to quantify, mostly under pKd 3.1 to 4; details: plain residues with an end cap or a label only (N-terminal biotin on a linker: ado-ado)
Sequence (Q8TBB1 261-371): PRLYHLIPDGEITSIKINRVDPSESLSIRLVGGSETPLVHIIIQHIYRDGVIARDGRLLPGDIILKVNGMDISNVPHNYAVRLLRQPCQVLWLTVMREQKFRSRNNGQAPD

pKd	Binder
3.67	PEKVSNTTVV [IGSF5, Q9NSI5]
below the threshold	AHGSTRDQSI [KCNB1, Q14721]

molecular target: T4, SNTG1, Q9NSN8; assay: holdup assay; set-up: key: below the threshold = too weak to quantify, mostly under pKd 3.1 to 4; details: plain residues with an end cap or a label only (N-terminal biotin on a linker: ado-ado)

pKd	Binder
below the threshold	PEKVSNTTVV [IGSF5, Q9NSI5]
3.5	AHGSTRDQSI [KCNB1, Q14721]

molecular target: T5, APBA1_2, Q02410; assay: holdup assay; set-up: key: below the threshold = too weak to quantify, mostly under pKd 3.1 to 4; details: plain residues with an end cap or a label only (N-terminal biotin on a linker: ado-ado)

pKd	Binder
3.51	PEKVSNTTVV [IGSF5, Q9NSI5]
below the threshold	AHGSTRDQSI [KCNB1, Q14721]

molecular target: PICK1, Q9NRD5; assay: holdup assay; set-up: key: below the threshold = too weak to quantify, mostly under pKd 3.1 to 4; details: plain residues with an end cap or a label only (N-terminal biotin on a linker: ado-ado)
Sequence (Q9NRD5 17-115): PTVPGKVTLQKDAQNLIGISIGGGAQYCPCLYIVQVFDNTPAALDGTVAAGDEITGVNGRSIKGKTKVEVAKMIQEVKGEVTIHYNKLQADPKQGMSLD

pKd	Binder
4.15	PEKVSNTTVV [IGSF5, Q9NSI5]
4.15	AHGSTRDQSI [KCNB1, Q14721]

molecular target: T6, NHERF3_3, Q5T2W1; assay: holdup assay; set-up: key: below the threshold = too weak to quantify, mostly under pKd 3.1 to 4; details: plain residues with an end cap or a label only (N-terminal biotin on a linker: ado-ado)

pKd	Binder
below the threshold	PEKVSNTTVV [IGSF5, Q9NSI5]
below the threshold	AHGSTRDQSI [KCNB1, Q14721]

molecular target: MAGI2_3, Q86UL8; assay: holdup assay; set-up: key: below the threshold = too weak to quantify, mostly under pKd 3.1 to 4; details: plain residues with an end cap or a label only (N-terminal biotin on a linker: ado-ado)
Sequence (Q86UL8 600-682): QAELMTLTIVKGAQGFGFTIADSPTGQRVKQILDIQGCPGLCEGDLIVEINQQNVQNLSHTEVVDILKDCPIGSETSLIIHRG

pKd	Binder
3.51	PEKVSNTTVV [IGSF5, Q9NSI5]
below the threshold	AHGSTRDQSI [KCNB1, Q14721]

molecular target: Inadl_3, Q8NI35; assay: holdup assay; set-up: key: below the threshold = too weak to quantify, mostly under pKd 3.1 to 4; details: plain residues with an end cap or a label only (N-terminal biotin on a linker: ado-ado)
Sequence (Q8NI35 359-469): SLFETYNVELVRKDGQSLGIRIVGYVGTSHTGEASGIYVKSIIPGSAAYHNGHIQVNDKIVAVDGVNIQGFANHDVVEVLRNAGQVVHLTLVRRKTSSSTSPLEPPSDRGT

pKd	Binder
3.48	PEKVSNTTVV [IGSF5, Q9NSI5]
below the threshold	AHGSTRDQSI [KCNB1, Q14721]

molecular target: T7, LRRC7, Q96NW7; assay: holdup assay; set-up: key: below the threshold = too weak to quantify, mostly under pKd 3.1 to 4; details: plain residues with an end cap or a label only (N-terminal biotin on a linker: ado-ado)

pKd	Binder
below the threshold	PEKVSNTTVV [IGSF5, Q9NSI5]
below the threshold	AHGSTRDQSI [KCNB1, Q14721]

molecular target: T8, CARD11, Q9BXL7; assay: holdup assay; set-up: key: below the threshold = too weak to quantify, mostly under pKd 3.1 to 4; details: plain residues with an end cap or a label only (N-terminal biotin on a linker: ado-ado)

pKd	Binder
below the threshold	PEKVSNTTVV [IGSF5, Q9NSI5]
below the threshold	AHGSTRDQSI [KCNB1, Q14721]

molecular target: LIMK2, P53671; assay: holdup assay; set-up: key: below the threshold = too weak to quantify, mostly under pKd 3.1 to 4; details: plain residues with an end cap or a label only (N-terminal biotin on a linker: ado-ado)
Sequence (P53671 143-248): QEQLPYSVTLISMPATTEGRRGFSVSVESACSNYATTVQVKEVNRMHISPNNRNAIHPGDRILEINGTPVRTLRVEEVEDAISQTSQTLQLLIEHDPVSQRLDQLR

pKd	Binder
below the threshold	PEKVSNTTVV [IGSF5, Q9NSI5]
below the threshold	AHGSTRDQSI [KCNB1, Q14721]

molecular target: IL16_1, Q14005; assay: holdup assay; set-up: key: below the threshold = too weak to quantify, mostly under pKd 3.1 to 4; details: plain residues with an end cap or a label only (N-terminal biotin on a linker: ado-ado)
Sequence (Q14005 210-306): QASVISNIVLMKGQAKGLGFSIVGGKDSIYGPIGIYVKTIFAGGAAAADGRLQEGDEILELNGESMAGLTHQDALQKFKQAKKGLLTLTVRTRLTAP

pKd	Binder
below the threshold	PEKVSNTTVV [IGSF5, Q9NSI5]
below the threshold	AHGSTRDQSI [KCNB1, Q14721]

molecular target: PTPN3, P26045; assay: holdup assay; set-up: key: below the threshold = too weak to quantify, mostly under pKd 3.1 to 4; details: plain residues with an end cap or a label only (N-terminal biotin on a linker: ado-ado)
Sequence (P26045 505-587): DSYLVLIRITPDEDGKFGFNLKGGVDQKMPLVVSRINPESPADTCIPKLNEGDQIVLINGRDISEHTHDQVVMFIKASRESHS

pKd	Binder
below the threshold	PEKVSNTTVV [IGSF5, Q9NSI5]
4.07	AHGSTRDQSI [KCNB1, Q14721]

molecular target: TJP1_3, Q07157; assay: holdup assay; set-up: key: below the threshold = too weak to quantify, mostly under pKd 3.1 to 4; details: plain residues with an end cap or a label only (N-terminal biotin on a linker: ado-ado)
Sequence (Q07157 416-512): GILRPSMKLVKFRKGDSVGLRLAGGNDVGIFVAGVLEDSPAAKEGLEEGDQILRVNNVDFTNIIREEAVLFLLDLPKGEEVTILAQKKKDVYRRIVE

pKd	Binder
below the threshold	PEKVSNTTVV [IGSF5, Q9NSI5]
3.48	AHGSTRDQSI [KCNB1, Q14721]

molecular target: DLG2_2, Q15700; assay: holdup assay; set-up: key: below the threshold = too weak to quantify, mostly under pKd 3.1 to 4; details: plain residues with an end cap or a label only (N-terminal biotin on a linker: ado-ado)
Sequence (Q15700 189-283): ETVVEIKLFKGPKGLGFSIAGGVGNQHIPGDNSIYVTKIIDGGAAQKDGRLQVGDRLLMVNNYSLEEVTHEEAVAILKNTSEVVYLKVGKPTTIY

pKd	Binder
4.44	PEKVSNTTVV [IGSF5, Q9NSI5]
3.86	AHGSTRDQSI [KCNB1, Q14721]

molecular target: SCRIB_3, Q14160; assay: holdup assay; set-up: key: below the threshold = too weak to quantify, mostly under pKd 3.1 to 4; details: plain residues with an end cap or a label only (N-terminal biotin on a linker: ado-ado)
Sequence (Q14160 999-1103): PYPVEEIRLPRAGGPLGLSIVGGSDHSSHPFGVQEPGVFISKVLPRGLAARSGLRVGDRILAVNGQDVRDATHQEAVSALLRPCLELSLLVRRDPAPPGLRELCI

pKd	Binder
below the threshold	PEKVSNTTVV [IGSF5, Q9NSI5]
below the threshold	AHGSTRDQSI [KCNB1, Q14721]

molecular target: AHNAK1, Q09666; assay: holdup assay; set-up: key: below the threshold = too weak to quantify, mostly under pKd 3.1 to 4; details: plain residues with an end cap or a label only (N-terminal biotin on a linker: ado-ado)
Sequence (Q09666 4-100): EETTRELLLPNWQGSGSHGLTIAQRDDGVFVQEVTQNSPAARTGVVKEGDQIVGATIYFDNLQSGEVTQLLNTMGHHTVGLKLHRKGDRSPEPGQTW

pKd	Binder
below the threshold	PEKVSNTTVV [IGSF5, Q9NSI5]
below the threshold	AHGSTRDQSI [KCNB1, Q14721]

molecular target: T9, NHERF3_1, Q5T2W1; assay: holdup assay; set-up: key: below the threshold = too weak to quantify, mostly under pKd 3.1 to 4; details: plain residues with an end cap or a label only (N-terminal biotin on a linker: ado-ado)

pKd	Binder
below the threshold	PEKVSNTTVV [IGSF5, Q9NSI5]
below the threshold	AHGSTRDQSI [KCNB1, Q14721]

molecular target: GRIP2_6, Q9C0E4; assay: holdup assay; set-up: key: below the threshold = too weak to quantify, mostly under pKd 3.1 to 4; details: plain residues with an end cap or a label only (N-terminal biotin on a linker: ado-ado)
Sequence (Q9C0E4 648-740): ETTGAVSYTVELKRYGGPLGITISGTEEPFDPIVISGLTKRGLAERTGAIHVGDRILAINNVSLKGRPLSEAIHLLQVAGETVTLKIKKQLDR

pKd	Binder
below the threshold	PEKVSNTTVV [IGSF5, Q9NSI5]
below the threshold	AHGSTRDQSI [KCNB1, Q14721]

molecular target: SCRIB_1, Q14160; assay: holdup assay; set-up: key: below the threshold = too weak to quantify, mostly under pKd 3.1 to 4; details: plain residues with an end cap or a label only (N-terminal biotin on a linker: ado-ado)
Sequence (Q14160 718-814): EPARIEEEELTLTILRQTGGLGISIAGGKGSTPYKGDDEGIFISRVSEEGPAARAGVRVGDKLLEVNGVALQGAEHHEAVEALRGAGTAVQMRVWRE

pKd	Binder
3.56	PEKVSNTTVV [IGSF5, Q9NSI5]
below the threshold	AHGSTRDQSI [KCNB1, Q14721]

molecular target: DLG5_1, Q8TDM6; assay: holdup assay; set-up: key: below the threshold = too weak to quantify, mostly under pKd 3.1 to 4; details: plain residues with an end cap or a label only (N-terminal biotin on a linker: ado-ado)
Sequence (Q8TDM6 617-713): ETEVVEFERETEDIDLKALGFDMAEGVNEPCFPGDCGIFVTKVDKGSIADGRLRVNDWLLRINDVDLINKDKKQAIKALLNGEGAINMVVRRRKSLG

pKd	Binder
below the threshold	PEKVSNTTVV [IGSF5, Q9NSI5]
4.06	AHGSTRDQSI [KCNB1, Q14721]
